Results on one protein are retold here after article PMC9657779, “Regulatory Role of Sphingosine-1-Phosphate and C16:0 Ceramide, in Immunogenic Cell Death of Colon Cancer Cells Induced by Bak/Bax-Activation” (Cancers, 2022).

This data set concerns the molecule itself. As to the kind of experiment: non-reducing SDS-PAGE and Western blot; whole cell lysates of DLD-1 cells treated with ABT/AZD or MTX, with or without PF-543 (also thapsigargin, fumonisin B1; CerS6 knock-out cells), under non-reducing conditions, blotted for CRT; disulfide-linked dimer. For orientation: A western blot detects proteins with antibodies after separation by electrophoresis.

Usually stoichiometry N stands for the number of molecules, sites or subunits per partner or assembly.

B1: calreticulin (natural protein, human (endogenous in DLD-1), UniProt P27797 18-417, looked up)
chain: EPAVYFKEQFLDGDGWTSRWIESKHKSDFGKFVLSSGKFYGDEEKDKGLQTSQDARFYALSASFEPFSNKGQTLVVQFTVKHEQNIDCGGGYVKLFPNSLDQTDMHGDSEYNIMFGPDICGPGTKKVHVIFNYKGKNVLINKDIRCKDDEFTHLYTLIVRPDNTYEVKIDNSQVESGSLEDDWDFLPPKKIKDPDASKPEDWDERAKIDDPTDSKPEDWDKPEHIPDPDAKKPEDWDEEMDGEWEPPVIQNPEYKGEWKPRQIDNPDYKGTWIHPEIDNPEYSPDPSIYAYDNFGVLGLDLWQVKSGTIFDNFLITNDEAYAEEFGNETWGVTKAAEKQMKDKQDEEQRLKEEEEDKKRKEEEEAEDKEDDEDKDEDEEDEEDKEEDEEEDVPGQAKDEL
notes: calreticulin (CRT), the normally ER resident chaperone, endogenous in human colorectal DLD-1 cells; Seen as a disulfide-linked dimer on Western blots run under non-reducing conditions; also called CRT; ectoCRT; source: endogenous, DLD-1 whole cell lysate (RIPA)
In the case of B1, the “stoichiometry N” value was 2.
